Assay results as given in patent publication US20260176365A1 (SYNTHEKINE, published 2026).
Residue numbers refer to the chain shown, from its start.

T1: mgp130 ECD antigen (mouse, UniProt Q00560 23-617)
T1 construct: Antigen of biopanning and PE-ELISA; The immunogen was an ECD-human IgG1 hinge-Fc fusion; also called ECD of mouse gp130; ngp130 ECD antigen (so in the source)
T1 sequence: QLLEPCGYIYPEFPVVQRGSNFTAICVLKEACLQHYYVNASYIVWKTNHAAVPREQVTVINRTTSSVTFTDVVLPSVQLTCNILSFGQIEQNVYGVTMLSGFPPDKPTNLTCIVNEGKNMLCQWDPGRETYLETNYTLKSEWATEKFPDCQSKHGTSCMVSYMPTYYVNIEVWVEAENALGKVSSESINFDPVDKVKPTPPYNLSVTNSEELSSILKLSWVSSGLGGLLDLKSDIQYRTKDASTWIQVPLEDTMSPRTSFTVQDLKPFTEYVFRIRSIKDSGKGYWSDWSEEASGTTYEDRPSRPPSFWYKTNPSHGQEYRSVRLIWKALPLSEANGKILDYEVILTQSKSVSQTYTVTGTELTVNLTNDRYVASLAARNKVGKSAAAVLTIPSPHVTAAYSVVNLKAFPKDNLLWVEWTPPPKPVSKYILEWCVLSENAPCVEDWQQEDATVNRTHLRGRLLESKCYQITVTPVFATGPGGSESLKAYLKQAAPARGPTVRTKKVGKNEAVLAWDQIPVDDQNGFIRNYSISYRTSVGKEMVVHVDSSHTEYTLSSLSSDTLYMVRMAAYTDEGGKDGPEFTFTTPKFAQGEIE

B1: mgp130_VHH1 (VHH)
VHH: QVQLQESGGGSVQAGGSLRLSCVISGFTYRQTFMGWFRQVLGKEREGVAAISTGGGSTVYADSVKGRFTISQDSSKNTVYLEMNGLKLEDTGMYYCAASTVITSVSINRGLYQYWGQGTQVTVSS
notes: As periplasmic extract of the phage clone; also called anti-mouse gp130 VHH; not shown: HA/His tag of the pMECS phagemid
B2: mgp130_VHH9 (VHH)
VHH: B1 VHH with V23G, Q31P, T58S, I70V
notes: as for B1
B3: mgp130_VHH39 (VHH)
VHH: B1 VHH with F27L, R30K, L41P, S74N, G110Y, Y114W
notes: as for B1
B4: mgp130_VHH2 (VHH)
VHH: B1 VHH with V23A, L41V, N77D, V105E, G110N
notes: as for B1
B5: mgp130_VHH26 (VHH)
VHH: B1 VHH with T28V, R30K, L41P
notes: as for B1
B6: mgp130_VHH45 (VHH)
VHH: B1 VHH with L20V, L41P, V59I, D62N
notes: as for B1
B7: mgp130_VHH15 (VHH)
VHH: B1 VHH with L41V, N77D, V105E, N108Y, G110N
notes: as for B1
B8: mgp130_VHH41 (VHH)
VHH: B1 VHH with V23G, Q31P, N77D, V105E, G110N
notes: as for B1
B9: mgp130_VHH47 (VHH)
VHH: B1 VHH with R30K, L41P, S57N, S106T, I107V
notes: as for B1
B10: mgp130_VHH21 (VHH)
VHH: B1 VHH with L20V, V23Q, L41P, V105P, G110N
notes: as for B1
B11: mgp130_VHH36 (VHH)
VHH: B1 VHH with L41V, T58M, N77D, V105E, G110N
notes: as for B1
B12: mgp130_VHH19 (VHH)
VHH: B1 VHH with V23G, Q31P, T58S, I70V, G110A
notes: as for B1
B13: mgp130_VHH49 (VHH)
VHH: B1 VHH with R30K, L41P, D73E, S106T
notes: as for B1
B14: mgp130_VHH14 (VHH)
VHH: B1 VHH with R30K, L41P
notes: as for B1
B15: mgp130_VHH24 (VHH)
VHH: B1 VHH with Q31P, S52T, V59L, S99T, G110N
notes: as for B1
B16: mgp130_VHH8 (VHH)
VHH: B1 VHH with Q31P, S52T, S99T, G110N
notes: as for B1
B17: mgp130_VHH31 (VHH)
VHH: B1 VHH with L41V, N77D, V105E, G110N
notes: as for B1
B18: mgp130_VHH25 (VHH)
VHH: B1 VHH with R30K, L41P, S106T
notes: as for B1
B19: mgp130_VHH5 (VHH)
VHH: B1 VHH with L41V, V59I, N77D, V105E, G110N
notes: as for B1
B20: mgp130_VHH32 (VHH)
VHH: B1 VHH with L20V, I24V, L41P, G110N
notes: as for B1
B21: mgp130_VHH37 (VHH)
VHH: B1 VHH with S11P, L41P, V105E
notes: as for B1
B22: mgp130_VHH27 (VHH)
VHH: B1 VHH with L20V, L41P
notes: as for B1
B23: mgp130_VHH38 (VHH)
VHH: QVQLQESGGGSVQAGGFLRLSCAFSGYTGCMGWFRQGPGQEREGVASINDGGSLTYADSVKGRFTISKDNAKKTLDLQMNTLKPEDTAMYYCAASLSYCLNPTLRVDGYNYWGQGTQVTVSS
notes: as for B1
B24: mgp130_VHH30 (VHH)
VHH: QVQLQESGGGLVQPGGSLRLSCAASGFTFSSYAMSWVRQAPGKGLEWVSAINSGGGSTYYADSVKGRFTISRDNAKNTLYLQLNSLKTEDTAMYYCAKHVTGDYDPSLRYEYNYWSQGTQVTVSS
notes: as for B1
B25: mgp130_VHH34 (VHH)
VHH: B24 VHH with S30R, G66A, S116G
notes: as for B1
B26: mgp130_VHH28 (VHH)
VHH: B24 VHH with N77S, A97T
notes: as for B1
B27: mgp130_VHH17 (VHH)
VHH: B24 VHH with S30R, S31N, N113A
notes: as for B1
B28: mgp130_VHH42 (VHH)
VHH: B24 VHH with E111G, Y114V
notes: as for B1
B29: mgp130_VHH43 (VHH)
VHH: B24 VHH with S53L, G56D, S57T, A61T, N113G
notes: as for B1
B30: mgp130_VHH4 (VHH)
VHH: B24 VHH with G56A, S57G, A61T, Y110H, E111G, Y114V
notes: as for B1
B31: mgp130_VHH16 (VHH)
VHH: B24 VHH with S30R, S31N, L83M, T88P
notes: as for B1
B32: mgp130_VHH18 (VHH)
VHH: B24 VHH with L11S, P14A, G66A, E111D, S116G
notes: as for B1
B33: mgp130_VHH20 (VHH)
VHH: B24 VHH with M34V, A50T, A97T, Y114V
notes: as for B1
B34: mgp130_VHH7 (VHH)
VHH: B24 VHH with G16E, G56A, S57G, A61T, E111G, Y114V
notes: as for B1
B35: mgp130_VHH33 (VHH)
VHH: B24 VHH with L79M, T101A, Y112W, N113H, Y114V, S116G
notes: as for B1
B36: mgp130_VHH29 (VHH)
VHH: B24 VHH with G56A, Y95C, Y114C, S116G, Q117P
notes: as for B1
B37: mgp130_VHH11 (VHH)
VHH: B24 VHH with S30R, S31N, A97T
notes: as for B1
B38: mgp130_VHH46 (VHH)
VHH: B24 VHH with Y95C, V100I, Y114C, S116G
notes: as for B1
B39: mgp130_VHH12 (VHH)
VHH: B24 VHH with Y95C, E111G, Y114C, S116G, Q117P
notes: as for B1
B40: mgp130_VHH10 (VHH)
VHH: B24 VHH with A23T, S30R, S31N, Q82R, N84H
notes: as for B1
B41: mgp130_VHH35 (VHH)
VHH: B24 VHH with V100I, S116G
notes: as for B1
B42: mgp130_VHH40 (VHH)
VHH: QVQLQESGGGLVQPGGSLRLSCAASGFTFSNYAMSWVRQAPGKGVEWVSAINSGGSVFYADSVKGRFTISRDNAKNTLYLQLSSLKTEDTAMYYCAKHVTGDYDPSLRYGYNVWSQGTQVTVSS
notes: as for B1
B43: mgp130_VHH23 (VHH)
VHH: QVQLQESGGGLVQPGGSLRLSCTASGFTFNSAHMKWERQPPGKGLEWVSFITPGGASTGYADSVKGRFTISRDNAKNTLYLQMNNLKTEDTAVYYCATGGLRGQGTQVTVSS
notes: as for B1
B44: mgp130_VHH44 (VHH)
VHH: B43 VHH with M34L, P53N, N74D
notes: as for B1
B45: mgp130_VHH3 (VHH)
VHH: QVQLQESGGGLVQPGGSLRLSCAASGFTLSTYWIYWVRQAPGKGPEWVSTVSRSGGTTYYADSVNGRFTISRDNAKNTVYLQMNNLKPEDAAVYYCLASVSNLGWPPVRAPSPTGQGTQVTVSS
notes: as for B1
B46: mgp130_VHH22 (VHH)
VHH: QVQLQESGGGLVQPGGSLRLSCAVSGFTFSNYAMKWVRQAPGKGLEWVSSISGGGGATYYADSVKGRFTISRDNTKNTLYLQMNSLKTEDTAVYYCAAQNLDYRGQGTQVTVSS
notes: as for B1
B47: mgp130_VHH48 (VHH)
VHH: B46 VHH with G10A, V24A, N31Y, K76N, N77D
notes: as for B1

target: T1, mgp130 ECD antigen; test: periplasmic extract ELISA (PE-ELISA) of phage clones

Binder | binding result
B1 | binds
B2 | binds
B3 | binds
B4 | binds
B5 | binds
B6 | binds
B7 | binds
B8 | binds
B9 | binds
B10 | binds
B11 | binds
B12 | binds
B13 | binds
B14 | binds
B15 | binds
B16 | binds
B17 | binds
B18 | binds
B19 | binds
B20 | binds
B21 | binds
B22 | binds
B23 | binds
B24 | binds

Binder | binding result
B25 | binds
B26 | binds
B27 | binds
B28 | binds
B29 | binds
B30 | binds
B31 | binds
B32 | binds
B33 | binds
B34 | binds
B35 | binds
B36 | binds
B37 | binds
B38 | binds
B39 | binds
B40 | binds
B41 | binds
B42 | binds
B43 | binds
B44 | binds
B45 | binds
B46 | binds
B47 | binds
